Test results taken from patent US5602230A, “Peptide inhibitors of selectin binding” (Centocor, Inc., priority 1995, dated 1997).
Where no end group is shown, it is not given here. The star is where a group is joined. Nif = α,α,α-trifluoro-m-toluidino-nicotinyl, O=C(c1cccnc1Nc1cccc(C(F)(F)F)c1)*

Molecular target: T1, purified human P-selectin (Homo sapiens, UniProt P16109)
T1 construct: P-selectin is isolated from human platelet lysates; from tissue; host or cells: outdated human platelet packs (platelet lysates)
T1 sequence (P16109 42-830): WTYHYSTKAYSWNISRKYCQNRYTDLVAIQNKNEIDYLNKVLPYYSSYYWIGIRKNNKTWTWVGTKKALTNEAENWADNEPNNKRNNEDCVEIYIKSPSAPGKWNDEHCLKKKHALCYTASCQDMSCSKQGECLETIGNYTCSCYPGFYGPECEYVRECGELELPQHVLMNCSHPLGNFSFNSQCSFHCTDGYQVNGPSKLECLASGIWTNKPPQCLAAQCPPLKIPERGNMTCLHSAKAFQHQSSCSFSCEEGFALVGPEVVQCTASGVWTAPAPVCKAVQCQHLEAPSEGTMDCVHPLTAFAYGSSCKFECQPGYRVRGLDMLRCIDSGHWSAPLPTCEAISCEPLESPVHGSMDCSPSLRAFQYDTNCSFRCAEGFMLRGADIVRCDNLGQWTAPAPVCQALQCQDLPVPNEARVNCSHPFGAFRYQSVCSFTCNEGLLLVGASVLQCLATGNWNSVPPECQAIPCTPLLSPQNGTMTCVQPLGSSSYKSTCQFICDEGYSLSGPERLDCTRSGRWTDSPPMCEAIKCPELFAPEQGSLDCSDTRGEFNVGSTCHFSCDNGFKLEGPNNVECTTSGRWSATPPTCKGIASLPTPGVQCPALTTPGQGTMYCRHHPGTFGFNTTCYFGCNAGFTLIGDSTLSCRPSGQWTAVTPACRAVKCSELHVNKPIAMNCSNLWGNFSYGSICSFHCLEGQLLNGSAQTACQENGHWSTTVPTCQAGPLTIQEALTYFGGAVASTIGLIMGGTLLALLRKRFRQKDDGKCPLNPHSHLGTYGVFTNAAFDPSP
Assay: Neutrophil adhesion to purified P-selectin immobilized on plastic wells
Format: cell-based
Settings: result in words
Source text: Peptides can be screened for their ability to inhibit adhesion to cells, for example, neutrophil adhesion to purified P-selectin immobilized on plastic wells, using the assay described by Geng, et al., Nature 343, 757-760 (1990).
Human neutrophils are isolated from heparinized whole blood by density gradient centrifugation on Mono-Poly resolving media, Flow Laboratories. Neutrophil suspensions are greater than 98% pure and greater than 95% viable by trypan blue exclusion. For adhesion assays, neutrophils are suspended at a concentration of 2×10^6 cells/mL in Hanks' balanced salt solution containing 1.26 mM Ca^2+ and 0.81 mM Mg^2+ (HBSS, Gibco) with […] human serum albumin (HBSS/HSA). Adhesion assays are conducted in triplicate in 96-well microtiter plates, Corning, incubated at 4° C. overnight with 50 microliters of various protein solutions.
P-selectin is isolated from human platelet lysates by immunoaffinity chromatography on antibody S12-Sepharose™ and ion-exchange chromatography on a Mono-Q™ column (FLPC, Pharmacia Fine Chemicals), as follows. […]
Bound P-selectin is eluted from the S12 Affigel with 100 mL of 80% ethylene glycol, 1 mM MES pH 6.0, 0.01% Lubrol PX. Peak fractions with absorbance at 280 nm are pooled. […]

Substance | inhibit the adhesion of human neutrophils to purified human P-selectin (FIG. I)
SEQ ID NO: 10: peptide of Formula I shown in FIG. I; its sequence is not printed in the text (Nif-TDLVAIQ-NH2) | inhibit the adhesion
YTDLVAI-NH2 [SEQ ID NO: 4, Tyr-Thr-Asp-Leu-Val-Ala-Ile-NH2] | inhibit the adhesion
